# Data reported in article PMC6764022 (ACS Nano, 2019).
# Where no end group is shown, it is not given here. [ ]: non-standard residue; d: D form. Lys(N3) = [N-]=[N+]=NCCCC[C@H](N)C(=O)O
# B1: B3: DNA origami B decorated with three β-CC-Di-KE (other)
# chain: [Lys(N3)]GKIAALKQKNAALKYEIAALEQENAALEQG-NH2
# modifications: also: tag β hybridised to handle of DNA origami B, three copies per origami
# How the values were obtained:
# [1] = Sedimentation equilibrium analytical ultracentrifugation (AUC); type: physicochemical; settings: PBS, 20 °C; for Oligomeric state (Table S3), reduced / MWAUC (Table S3), reduced: 10 fold excess of TCEP; for MWAUC (Table S3), reduced: 280 nm (235 nm for the KE peptides); for MWAUC (Table S3): 55 μM each, 44–60 krpm, single ideal species, 280 nm (235 nm for CC-Di-KE), performed once, 99% confidence limits in separate column; for Oligomeric state (Table S3): single run
# [2] = target: the molecule itself; test: counting of free and bound DNA origami nanostructures in electron micrographs (TEM); peptides displayed on DNA origamis A and B through oligonucleotide tags; gel-purified An and Bn mixed, total monomer concentrations 0.25-2.4 nM; background of random coincidences subtracted; Kd from the slope of a linear fit through the origin; additional systematic error of approximately 20%
Molecule,"Oligomeric state (Table S3), reduced ([1]; 55 μM)","MWAUC (Table S3), reduced ([1]; 55 μM)",MWAUC (Table S3) [1],Oligomeric state (Table S3) ([1]; 55 μM),other results
"Ac-CGG EIAALEQ ENAALEQ KIAALKW KNAALKQ G-NH2 (Ac-CGGEIAALEQENAALEQKIAALKWKNAALKQG-NH2) [C-CC-Di-EK, N-terminally Cys-labelled CC-Di-EK]",1.96 x monomer,6683 Da,–,–,"oligomeric state by AUC, in words ([1]; 55 μM): exists as a dimer in solution even under reducing conditions"
"Ac-CGG KIAALKQ KNAALKY EIAALEQ ENAALEQ G-NH2 (Ac-CGGKIAALKQKNAALKYEIAALEQENAALEQG-NH2) [C-CC-Di-KE, CC-Di-KE with N-terminal Cys]",0.92 x monomer,3126 Da,–,–,–
"Ac-G EIAALEQ EIAALEQ KNAALKW KIAALKQ G-NH2 (Ac-GEIAALEQEIAALEQKNAALKWKIAALKQG-NH2) [CC-Di-EN4, 4-heptad coiled-coil peptide withone asparagine]",–,–,6079 Da,1.87 x monomer,–
"Ac-G EIAALEQ ENAALEQ KIAALKW KNAALKQ GC-NH2 (Ac-GEIAALEQENAALEQKIAALKWKNAALKQGC-NH2) [CC-Di-EK-C, CC-Di-EK with C-terminal Cys]",1.04 x monomer,3474 Da,–,–,–
"Ac-G EIAALEQ ENAALEQ KIAALKW KNAALKQ GC-NH2 | Ac-G KIAALKQ KNAALKY EIAALEQ ENAALEQ GC-NH2 (disulfide) [CC-Di-EK-C | CC-Di-KE-C, obligate heterodimer linked by disulfide via both C-termini]",–,–,–,–,"Oligomeric state (Table S3), disulfide-linked heterodimer ([1]; 24–39 krpm (Figure S3 o, p)): 1.00 x obligate dimer; MWAUC (Table S3), disulfide-linked heterodimer ([1]; 24–39 krpm (Figure S3 o, p), 280 nm): 6695 Da"
"Ac-G EIAALEQ KNAALKW KIAALKQ G-NH2 (Ac-GEIAALEQKNAALKWKIAALKQG-NH2) [CC-Di-EN3, 3-heptad coiled-coil peptide]",–,–,2369 Da,0.95 x monomer,–
"Ac-G KIAALKQ KNAALKY EIAALEQ ENAALEQ GC-NH2 (Ac-GKIAALKQKNAALKYEIAALEQENAALEQGC-NH2) [CC-Di-KE-C, CC-Di-KE with C-terminal Cys]",0.92 x monomer,3062 Da,–,–,–
"Ac-G LEQ EIAALEQ KNAALKW KIAALKQ G-NH2 [CC-Di-EN3.5, 3.5-heptad coiled-coil peptide]",–,–,2982 Da,1.04 x monomer,–
B1,–,–,–,–,Kd [2]: 20 ± 3 nM
